Results: PMC9234029, “Voltammetric lipase activity assay based on dilinolein and a modified carbon paste electrode” (Analytical and Bioanalytical Chemistry, 2022)

Substrate: CCCCC/C=C\C/C=C\CCCCCCCC(=O)OCC(O)COC(=O)CCCCCCC/C=C\C/C=C\CCCCC
Test: differential pulse voltammetry of released linoleic acid, CoPC/MWCNT carbon paste electrode
Assay type: biochemical, Sus scrofa
Conditions: sodium borate 0.1 M pH 9, room temperature, 25 min, Lineweaver-Burk plot, substrate in paraffin oil

B1: porcine pancreas lipase (PP-L) (Sus scrofa) (protein)
chain: SEVCFPRLGCFSDDAPWAGIVQRPLKILPWSPKDVDTRFLLYTNQNQNNYQELVADPSTITNSNFRMDRKTRFIIHGFIDKGEEDWLSNICKNLFKVESVNCICVDWKGGSRTGYTQASQNIRIVGAEVAYFVEVLKSSLGYSPSNVHVIGHSLGSHAAGEAGRRTNGTIERITGLDPAEPCFQGTPELVRLDPSDAKFVDVIHTDAAPIIPNLGFGMSQTVGHLDFFPNGGKQMPGCQKNILSQIVDIDGIWEGTRDFVACNHLRSYKYYADSILNPDGFAGFPCDSYNVFTANKCFPCPSEGCPQMGHYADRFPGKTNGVSQVFYLNTGDASNFARWRYKVSVTLSGKKVTGHILVSLFGNEGNSRQYEIYKGTLQPDNTHSDEFDSDVEVGDLQKVKFIWYNNNVINPTLPRVGASKITVERNDGKVYDFCSQETVREEVLLTLNPC
Work on B1 yielded a Km of 290 µM.
